Results reported in paper PMC4471680.

Molecular target: myeloperoxidase (human (endogenous in neutrophils))
Assay: SEC; unactivated azurophilic granules permeabilized with 0.1% NP-40, Superdex 200 GL, 20 mM HEPES pH 7.4, 100 mM NaCl, 0.5 U/ml heparin; fractions probed for NE and MPO; proteins of the complex detected by mass spectrometry

myeloperoxidase (human (endogenous in neutrophils)), sequence (P05164 165-745): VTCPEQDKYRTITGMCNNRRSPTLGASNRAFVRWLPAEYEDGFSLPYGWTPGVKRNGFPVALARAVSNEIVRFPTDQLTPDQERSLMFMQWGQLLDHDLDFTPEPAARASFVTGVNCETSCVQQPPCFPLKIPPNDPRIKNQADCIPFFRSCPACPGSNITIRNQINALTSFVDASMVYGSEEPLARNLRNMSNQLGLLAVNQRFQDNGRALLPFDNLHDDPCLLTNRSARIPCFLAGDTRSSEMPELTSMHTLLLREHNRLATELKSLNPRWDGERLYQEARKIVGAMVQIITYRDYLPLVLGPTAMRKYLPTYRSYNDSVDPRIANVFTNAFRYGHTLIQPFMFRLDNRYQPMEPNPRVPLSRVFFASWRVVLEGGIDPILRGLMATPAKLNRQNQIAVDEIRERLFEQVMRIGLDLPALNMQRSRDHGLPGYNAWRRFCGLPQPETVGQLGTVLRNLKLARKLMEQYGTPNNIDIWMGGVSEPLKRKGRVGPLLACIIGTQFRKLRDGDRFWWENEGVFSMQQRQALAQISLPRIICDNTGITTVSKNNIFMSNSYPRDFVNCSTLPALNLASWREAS

neutrophil elastase (from UniProt P08246 30-267) (enzyme)
stoichiometry N: 2 NE per MPO
